Legend:
[1] = molecular target: T1, human TSLP receptor (TSLP-R) (human, UniProt Q9HC73 23-371); assay: cell-based or functional assay
T1 sequence (looked up): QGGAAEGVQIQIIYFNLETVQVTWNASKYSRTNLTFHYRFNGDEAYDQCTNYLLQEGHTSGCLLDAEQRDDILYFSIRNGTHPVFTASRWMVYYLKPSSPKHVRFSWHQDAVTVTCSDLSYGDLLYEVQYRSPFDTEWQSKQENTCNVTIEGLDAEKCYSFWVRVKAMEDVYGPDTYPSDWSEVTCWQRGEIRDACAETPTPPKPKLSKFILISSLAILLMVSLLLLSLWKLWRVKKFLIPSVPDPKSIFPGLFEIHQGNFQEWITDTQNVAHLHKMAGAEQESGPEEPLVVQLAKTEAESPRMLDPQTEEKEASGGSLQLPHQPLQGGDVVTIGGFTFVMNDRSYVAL

[2] = molecular target: T1, human TSLP receptor (TSLP-R); assay: cell-based or functional assay; remark: listed apart in the source

- IC50 (ng/mL), CCL17 production in dendritic cells [1]: 16.1 ng/mL
- IC50 (ng/mL), cell proliferation of Ba/F3 cells transfected with human TSLP-R/IL-7Rα [2]: 90.7 ng/mL
B1: TRAB-1 antibody (anti-TSLP-R antibody) (antibody, human IgG1, kappa, V domains shown)
VH: EVQLLESGGGLVQPGGSLRLSCAASGFTFRSSAMHWVRQAPGKGLKWVSSVSGSGAGTYYADSVKGRFTISRDNPKNTLYLQMNSLRAEDTAVYYCVKEGGSRGFDYWGQGTLVTVSS
VL: DIQMTQSPSSLSASVGDRVTITCRASQDISNYLAWFQQKPGKAPKSLIYTASSLQSGVPSKFSGSGSGTDFTLTISSLQPEDFATYYCQQYNLYPPTFGQGTKVEIKR
